T1: Npun02004178 protein (Nostoc punctiforme, UniProt B2J1M1)
T1 construct: made in house; host or cells: E. coli BL21 (DE3)
T1 sequence (B2J1M1 1-232): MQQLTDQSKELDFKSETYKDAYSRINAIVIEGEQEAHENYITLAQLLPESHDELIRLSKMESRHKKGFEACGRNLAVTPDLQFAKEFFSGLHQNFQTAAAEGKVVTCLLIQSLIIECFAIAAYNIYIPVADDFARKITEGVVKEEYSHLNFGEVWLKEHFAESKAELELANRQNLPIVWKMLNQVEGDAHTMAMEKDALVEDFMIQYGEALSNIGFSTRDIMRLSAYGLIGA

B1: sll0209: Synechocystis sp. PCC6803 sll0209, acyl-ACP reductase (protein, listed as Synechocystis sp.)
chain: MFGLIGHLTSLEHAQAVAEDLGYPEYANQGLDFWCSAPPQVVDNFQVKSVTGQVIEGKYVESCFLPEMLTQRRIKAAIRKILNAMALAQKVGLDITALGGFSSIVFEEFNLKQNNQVRNVELDFQRFTTGNTHTAYVICRQVESGAKQLGIDLSQATVAVCGATGDIGSAVCRWLDSKHQVKELLLIARNRQRLENLQEELGRGKIMDLETALPQADIIVWVASMPKGVEIAGEMLKKPCLIVDGGYPKNLDTRVKADGVHILKGGIVEHSLDITWEIMKIVEMDIPSRQMFACFAEAILLEFEGWRTNFSWGRNQISVNKMEAIGEASVKHGFCPLVAL
B2: PMM0533: P. mariunus CCMP1986 PMM0533, putative aldehyde-generating enzyme (protein, listed as Prochlorococcus marinus)
chain: MFGLIGHSTSFEDAKRKASLLGFDHIADGDLDVWCTAPPQLVENVEVKSAIGISIEGSYIDSCFVPEMLSRFKTARRKVLNAMELAQKKGINITALGGFTSIIFENFNLLQHKQIRNTSLEWERFTTGNTHTAWVICRQLEMNAPKIGIDLKSATVAVVGATGDIGSAVCRWLINKTGIGELLLVARQKEPLDSLQKELDGGTIKNLDEALPEADIVVWVASMPKTMEIDANNLKQPCLMIDGGYPKNLDEKFQGNNIHVVKGGIVRFFNDIGWNMMELAEMQNPQREMFACFAEAMILEFEKCHTNFSWGRNNISLEKMEFIGAASVKHGFSAIGLDKHPKVLAV
B3: ATCC51142 cce_1430: Cyanothece sp. ATCC51142 cce_1430, putative aldehyde-generating enzyme (protein, listed as Cyanothece sp.)
chain: MFGLIGHLTSLEHAHSVADAFGYGPYATQGLDLWCSAPPQFVEHFHVTSITGQTIEGKYIESAFLPEMLIKRRIKAAIRKILNAMAFAQKNNLNITALGGFSSIIFEEFNLKENRQVRNVSLEFDRFTTGNTHTAYIICRQVEQASAKLGIDLSQATVAICGATGDIGSAVCRWLDRKTDTQELFLIARNKERLQRLQDELGRGKIMGLEEALPEADIIVWVASMPKGVEINAETLKKPCLIIDGGYPKNLDTKIKHPDVHILKGGIVEHSLDIDWKIMETVNMDVPSRQMFACFAEAILLEFEQWHTNFSWGRNQITVTKMEQIGEASVKHGLQPLLSW
B4: PCC7942 orf1594: Synechococcus elongatus PCC7942 orf1594, putative aldehyde-generating enzyme, named Acyl-ACP reductase (protein, listed as Synechococcus elongatus)
chain: MFGLIGHLTSLEQARDVSRRMGYDEYADQGLEFWSSAPPQIVDEITVTSATGKVIHGRYIESCFLPEMLAARRFKTATRKVLNAMSHAQKHGIDISALGGFTSIIFENFDLASLRQVRDTTLEFERFTTGNTHTAYVICRQVEAAAKTLGIDITQATVAVVGATGDIGSAVCRWLDLKLGVGDLILTARNQERLDNLQAELGRGKILPLEAALPEADFIVWVASMPQGVVIDPATLKQPCVLIDGGYPKNLGSKVQGEGIYVLNGGVVEHCFDIDWQIMSAAEMARPERQMFACFAEAMLLEFEGWHTNFSWGRNQITIEKMEAIGEASVRHGFQPLALAI

How the values were obtained:
[1] = biological target: T1, Npun02004178 protein; test: In-vitro fatty aldehyde decarbonylase assay; format: biochemical, Nostoc punctiforme PCC73102
Protocol: The genomic DNA encoding N. punctiforme PCC73102 Npun02004178 (SEQ ID NO:5) was cloned into the NdeI and XhoI sites of vector pET-15b under the control of the T7 promoter. The resulting Npun02004178 protein contained an N-terminal His-tag. An E. coli BL21 strain (DE3) (Invitrogen) was transformed with the plasmid by routine chemical transformation techniques. Protein expression was carried out by first inoculating a colony of the E. coli strain in 5 mL of LB media supplemented with 100 mg/L of carbenicillin and shaken overnight at 37° C. to produce a starter culture. This starter cultures was used to inoculate 0.5 L of LB media supplemented with 100 mg/L of carbenicillin. […] Protein concentration was determined using the Bradford assay (Biorad). […]
To test Npun02004178 protein for decarbonylation activity, the following enzyme assays were set-up. […] Samples were analyzed by GC/MS using the following parameters: run time: 13.13 min; column: HP-5-MS Part No. 19091S-433E (length of 30 meters; I.D.: 0.25 mm narrowbore; film: 0.25 ìM); inject: 1 ìl Agilent 6850 inlet; inlet: 300 C splitless; carrier gas: helium; flow: 1.3 mL/min; oven temp: 75° C. hold 5 min, 320 at 40° C./min, 320 hold 2 min; det: Agilent 5975B VL MSD; det. temp: 330° C.; scan: 50-550 M/Z. Heptadecane from Sigma was used as an authentic reference for determining compound retention time and fragmentation pattern. […]

[2] = system: E. coli MG1655; test: Heterologous expression of aldehyde-generating enzyme alone in E. coli, GC-MS of fatty aldehydes and fatty alcohols; format: cell-based
Protocol: The genomic DNA encoding Synechococcus elongatus PCC7942 orf1594 (YP_400611; putative aldehyde-generating enzyme) (SEQ ID NO:65) was amplified and cloned into the NcoI and EcoRI sites of vector OP-80 (pCL1920 derivative) under the control of the Ptrc promoter. The resulting construct (“OP80-PCC7942_1594”) was transformed into E. coli MG1655 and the cells were grown at 37° C. in M9 minimal media with 1% (w/v) glucose as carbon source and supplemented with 100 μg/mL spectinomycin. When the culture reached OD600 of 0.8-1.0, it was induced with 1 mM IPTG and cells were grown for an additional 18-20 h at 37° C. Cells from 0.5 mL of culture were extracted with 0.5 mL of ethyl acetate. After sonication for 60 min, the sample was centrifuged at 15,000 rpm for 5 min. The solvent layer was analyzed by GC-MS as described in Example 1.
The genomic DNA encoding Cyanothece sp. ATCC51142 cce_1430 (YP_001802846; putative aldehyde-generating enzyme) (SEQ ID NO:69) was amplified and cloned into the NcoI and EcoRI sites of vector OP-80 (pCL1920 derivative) under the control of the Ptrc promoter. The resulting construct was transformed into E. coli MG1655 and the cells were grown at 37° C. in M9 minimal media with 1% (w/v) glucose as carbon source and supplemented with 100 μg/mL spectinomycin. The cells were cultured and extracted as in Example 3 and analyzed by GC-MS as described in Example 26.
The genomic DNA encoding P. mariunus CCMP1986 PMM0533 (NP_892651; putative aldehyde-generating enzyme) (SEQ ID NO:71) and Prochlorococcus mariunus CCMP1986 PMM0532 (NP_892650; putative decarbonylase) (SEQ ID NO:19) were amplified and cloned into the NcoI and EcoRI sites of vector OP-80 and the NdeI and XhoI sites of vector OP-183, respectively. The resulting constructs were separately transformed and cotransformed into E. coli MG1655 and the cells were grown at 37° C. in M9 minimal media supplemented with 100 μg/mL spectinomycin and 100 μg/mL carbenicillin. The cells were cultured and extracted as in Example 3 and analyzed by GC-MS as described in Example 26.
The genomic DNA encoding Synechocystis sp. PCC6803 sll0208 (NP_442147; putative fatty aldehyde decarbonylase) (SEQ ID NO:3) was synthesized and cloned into the NdeI and XhoI sites of vector OP-183 (pACYC derivative) under the control of the Ptrc promoter. The genomic DNA encoding Synechocystis sp. PCC6803 sll0209 (NP_442146; acyl-ACP reductase) (SEQ ID NO:67) was synthesized and cloned into the NcoI and EcoRI sites of vector OP-183 (pACYC derivative) under the control of the Ptrc promoter. The resulting constructs were cotransformed with into E. coli MG1655 ΔfadE lacZ::Ptrc ′tesA-fadD. […] The cells were cultured and extracted as in Example 3 and analyzed by GC-MS as described in Example 26.

[3] = enzyme expressed alone in E. coli MG1655

Molecule | production of fatty aldehydes and fatty alcohols [2, 3] | other results
CCCCCCCCCCCCCCCCCC=O [octadecanal] | – | in-vitro conversion of octadecanal to heptadecane ([1]; 30 μM Npun02004178, 200 μM octadecanal, spinach ferredoxin, spinach ferredoxin reductase, 1 mM NADPH, 37° C., 2 h): conversion of octadecanal to heptadecane was observed; in-vitro conversion of octadecanal to heptadecane ([1]; NADPH, cyanobacterial ferredoxin oxidoreductase and any of the three cyanobacterial ferredoxins): conversion of octadecanal to heptadecane was observed
B1 | – | production of fatty aldehydes and fatty alcohols ([2]; enzyme expressed alone in E. coli MG1655 ΔfadE lacZ::Ptrc ′tesA-fadD (fatty acyl-CoA-producing)): did not produce any fatty aldehydes or fatty alcohols
B2 | did not produce any fatty aldehydes or fatty alcohols | –
B3 | generates aldehydes in-vivo | –
B4 | generates aldehydes in-vivo | –

Reference: patent publication US9481899B2, “Methods and compositions for producing hydrocarbons” (priority 2008, dated 2016)
